The source of these data is US8754043B2, “Epidermal growth factor compositions” (Bharat Biotech International Limited, priority 2005, dated 2014).

In one series the test system is rats. The series is described as follows: Pre-clinical safety studies (acute 8 days, sub-acute 30 days) in rats. Type of series: in vivo. The protocol:
(§1) Various combinations of EGF were thus carried out and the combinations were subjected to thermal stability as per ICH guidelines. Pre-clinical studies for safety of the formulations with varying percentages of EGF, were conducted in both rats and rabbits, as per the approved guidelines. Briefly, acute toxicity studies were carried out for 8 days, sub-acute studies were carried on for 30 days and ocular irritation study was conducted for 7 days.

Another series has as its system rabbits. The series is described as follows: Pre-clinical safety studies (acute 8 days, sub-acute 30 days) in rabbits. Type of series: in vivo. As for the experimental part:
as §1

Consider `CC[C@H](C)[C@@H]1NC(=O)[C@H](Cc2ccc(O)cc2)NC(=O)CNC(=O)[C@H](C(C)C)NC(=O)[C@H](C(C)C)NC(=O)[C@@H](NC(=O)[C@H](CC(N)=O)NC(=O)[C@@H]2CSSC[C@@H]3NC(=O)[C@H](Cc4ccc(O)cc4)NC(=O)CNC(=O)[C@H](CC(=O)O)NC(=O)[C@H](Cc4c[nH]cn4)NC(=O)[C@H](CO)NC(=O)[C@H](CC(C)C)NC(=O)[C@@H]4CCCN4C(=O)[C@@H](NC(=O)[C@H](CCC(=O)O)NC(=O)[C@H](CO)NC(=O)[C@H](CC(=O)O)NC(=O)[C@H](CO)NC(=O)[C@@H](N)CC(N)=O)CSSC[C@H](NC(=O)[C@H](C(C)C)NC(=O)CNC(=O)[C@H](CC(=O)O)NC(=O)[C@H](Cc4c[nH]cn4)NC(=O)[C@H](CC(C)C)NC3=O)C(=O)N[C@@H](CCSC)C(=O)N[C@@H](Cc3ccc(O)cc3)C(=O)N[C@@H]([C@@H](C)CC)C(=O)N[C@@H](CCC(=O)O)C(=O)N[C@@H](C)C(=O)N[C@@H](CC(C)C)C(=O)N[C@@H](CC(=O)O)C(=O)N[C@@H](CCCCN)C(=O)N[C@@H](Cc3ccc(O)cc3)C(=O)N[C@@H](C)C(=O)N2)CSSC[C@@H](C(=O)N[C@@H](CCC(N)=O)C(=O)N[C@@H](Cc2ccc(O)cc2)C(=O)N[C@@H](CCCNC(=N)N)C(=O)N[C@@H](CC(=O)O)C(=O)N[C@@H](CC(C)C)C(=O)N[C@@H](CCCCN)C(=O)N[C@@H](Cc2c[nH]c3ccccc23)C(=O)N[C@@H](Cc2c[nH]c3ccccc23)C(=O)N[C@@H](CCC(=O)O)C(=O)N[C@@H](CC(C)C)C(=O)N[C@@H](CCCNC(=N)N)C(=O)O)NC(=O)[C@H](CCCNC(=N)N)NC(=O)[C@H](CCC(=O)O)NC(=O)CNC1=O` [EGF, Epidermal Growth Factor], for which, in the series on rats (control vs treated), the biochemical parameters result is “within the normal range and no abnormality was observed”; the “growth rate and food consumption” value is recorded as “normal & did not differ significantly”; the hematological parameters entry is “no observable changes”. Also, the anti-body response result in the series with rats (treated groups) is given as “no observable anti-body response”. Also, in the series with rabbits (control vs treated), the biochemical parameters result was “within the normal range and no abnormality was observed”; the “growth rate and food consumption” value is “normal & did not differ significantly”; the hematological parameters result was “no observable changes”. Further, the anti-body response entry in the series with rabbits (treated groups) was “no observable anti-body response”.
